Laboratory results published in patent US20080247947A1, “High dose 111In-pentetreotide therapy of neuroendocrine tumors” (priority 2007, published 2008).
Entries after “also recorded” stand apart in the source; their conditions may differ.

How the values were obtained:
[1] = cited from earlier work
[2] = system: carcinoid syndrome, advanced disease; settings: patients with advanced disease; cited from earlier work
carcinoid tumors = settings: cited from earlier work
[3] = system: progressive neuroendocrine tumors; test: Non-randomized trial: clinical, metabolic and imaging response (RECIST) after two cycles; type: in vivo; settings: 18 patients, two cycles of 500 mCi
Source text: Among these patients, seventeen (53%) had grade I or II hematological toxicities, while one patient had grade III thrombocytopenia with nadir mean of 5 weeks (ranging from 4 to 6 weeks) after therapy (FIG. 2). These toxicities were transient, lasting from 1 to 6 weeks (averaging 3 weeks). […] One patient had grad II liver toxicity which appeared 4 weeks after the therapy and resolved in week 5. […] Among the 18 patients (13 men and 5 women, from 41 to 83 years old (average age 59)), who were treated with two cycles of high dose (500 mCi) ^111In-pentetreotide, therapeutic efficacy of this treatment regimen is evident (FIG. 3). These patient had progressive neuroendocrine tumors and failed first-line therapy. According to the pre-therapy diagnostic ^111In-pentetreotide scan, these patients had grade 3 to grade 5 tumors. In this trial, each dose of ^111In-pentetreotide was infused over a period of 3 to 6 hours. The two treatments were spaced a few weeks (e.g., […]) apart. The patients were monitored for clinical, metabolic, and imaging responses based on using Response Evaluation Criteria in Solid Tumors (RECIST) criteria (Therasse P, Arbuck S G, Eisenhauer E A, et al. New guidelines to evaluate the response to treatment in solid tumors. European Organization for Research and Treatment of Cancer, National Cancer Institute of the United States, National Cancer Institute of Canada. Journal of the National Cancer Institute 2000; 92(3):205-16.).
(§1) Patients were injected with ^111In-pentetreotide at an average dose of 489.2 mCi (ranging from 473.5 to 511.6 mCi) as an intravenous infusion in physiological saline using a specially designed IV pole to decrease radiation exposure to the personnel. The infusion took about 3 to 5 hours, in an outpatient setting. The amount of octreotide administered was 30 mg. Patients were evaluated for hematological, renal and hepatic toxicities using NCI common toxicities criteria on week 4, 5, 6, and 7 after treatment, and every three months thereafter. Patients were followed for an average of 8.69 months with a range of 1.7-17.2 months. 18 patients received a second treatment 10-12 weeks after the first therapy with an average cumulative dose of 982.8 mCi (ranging from 955.1 to 1006.1 mCi). These patients were evaluated for a clinical and metabolic responses beginning 4 weeks after their second therapy.
The efficacy of ^111In-pentetreotide therapy was evaluated in 18 patients who received two cycles of therapy. The primary endpoint was clinical, metabolic and imaging response using RECIS criteria. […] Tumor image before and after treatment showing no progression (FIG. 6).

NETs = settings: 180 mCi every 3 weeks for 10 occasions; cited from earlier work
disseminated NETs = settings: 16 patients, repeated doses 81-134 mCi, cited from earlier work
[4] = system: patients with progressive neuroendocrine tumors; test: Non-randomized trial: hematological, renal and hepatic toxicities by NCI common toxicities criteria; type: in vivo
Procedure: In a non-randomized trial, 32 patients (21 men and 11 women, from 16-83 years old (average 56 years old)) were tested. Among these patients, there were 25 Caucasions (78%), 2 Blacks (6%), 4 Hispanics (12.5%) and 1 other (3%). All patients had progressive neuroendocrine tumors (21 Carcinoma, 7 Islet Cell Carcinoma of the Pancreas, 1 Pituitary Adenoma, 1 Glucagonoma, and 1 Pheochromocytoma) and all had failed first line therapy (23 chemotherapy, 12 radiotherapy, and 28 surgery).
Fourteen patients received one therapy (ranging from 473.5 to 511.6 mCi, with an average of 489.2 mCi) and 18 patients received two treatments with the cumulative doses ranging from 955.1 to 1,006.1 mCi (average=982.8 mCi/patient). Patients were evaluated for evidence of hematological, renal and hepatic toxicities using NCI common toxicities criteria and followed for an average of 9 months (ranging from 1.7 to 17.2 months).
as §1

[5] = 18 patients, double-dose treatments
[6] = 32 patients, one or two cycles of about 500 mCi

## C[C@@H](O)[C@@H]1NC(=O)[C@H](CCCCN)NC(=O)[C@@H](Cc2c[nH]c3ccccc23)NC(=O)[C@H](Cc2ccccc2)NC(=O)[C@@H](NC(=O)[C@H](N)Cc2ccccc2)CSSC[C@@H](C(=O)N[C@H](CO)[C@@H](C)O)NC1=O [octreotide]
[1]
  in vivo half-life: 1.5 to 2 h
[2]
  tumor stabilization, patients: 50-55%

## Interferon [Interferon (IFN)]
Carcinoid tumors; carcinoid tumors
  biochemical response rate: 40%
  tumor response rate: 12%
Carcinoid tumors; fever, anorexia, weight loss, fatigue and myelosuppression
  toxicity: significant toxicity

## [^111In-DTPA-D-Phe1]-octreotide [^111In-pentetreotide]
[3]
  clinical response (functional living index questionnaire and physical examination), patients: 84%
  metabolic response (25% or more decline in chromogranin or other markers), patients: 72%
  patients achieving stable disease by imaging criteria: 88%
  patients achieving stable disease by imaging criteria (count): sixteen out of the 18
NETs
  safety of repeated doses: demonstrated the safety
Disseminated NETs; 18 months after the treatments
  patients with sustained benefit: 31%
Disseminated NETs
  patients with some short term benefits: up to 70%
[4]; 4 weeks after treatment
  nose bleeds: One patient
[4]; 18 patients, double-dose (two cycles of 500 mCi)
  patients with grade I or grade II hematological toxicities: 55%
[4]; [5]
  duration of hematological toxicities: 1-6 weeks
  grade III thrombocytopenia: one patient
  nadir mean after therapy: 5 weeks
  need for supportive therapy: None of the patients required supportive therapy
[4]; 18 patients, double-dose treatments, follow-up 3.93 to 17.23 months
  renal toxicity: No renal toxicity was observed
[4]; 18 patients, double-dose treatments, appeared 4 weeks after therapy, resolved on week 5
  grade II liver toxicities: One patient
[4]; 32 patients, follow-up 1.7 to 17.2 months
  renal toxicity: no evidence of renal toxicity; also recorded: No significant short or long term renal toxicity
[4]; 32 patients, one or two cycles
  need for supportive therapy: None of the patients required supportive therapy
[4]; [6]
  duration of hematological toxicities (average): 3 weeks
  grade III thrombocytopenia: one patient
  nadir mean of hematological toxicity after therapy: 5 weeks
[4]; 32 patients, one or two cycles of about 500 mCi, intravenous infusion
  patients with grade I or II hematological toxicities: 53%
[4]; 32 patients, appeared 4 weeks after therapy, resolved in week 5
  grade II liver toxicity: One patient
[4]; 32 patients, deaths attributed to tumor burden
  deaths during the course of the study: Two patients died
[4]; average cumulative dose 982.8 mCi, average follow up 8.69 months
  maximum tolerated dose: maximum tolerated dose has not been reached
[4]; following one or two cycles
  overall treatment associated toxicity: no evidence of significant treatment associated toxicity
